*1 amine or outer side, *2 acyl side, *3 side chain or, on linkers, in order; H or OH if unused. Where a SMILES comes first, the peptide text is derived from it. Bridges are numbered along the chain shown (N, C = ends). Primed or numbered codes have the meaning given here. Where no end group is shown, it is not given here. [ ]: non-standard residue; d: D form. 4‑Aminomethyl‑phenylacetyl = 4-aminomethyl-phenylacetyl unit, its amine closes the lactam, O=C(Cc1ccc(CN[*:1])cc1)[*:2]; Q(pyrrolidin)(3) = Gln whose side-chain amide N is in a pyrrolidine ring, O=C(CC[C@H](N[*:1])C(=O)[*:2])N1CCCC1; 2Nal = N[C@@H](Cc1ccc2ccccc2c1)C(=O)O; AEF = NCCOc1ccc(C[C@H](N)C(=O)O)cc1; X1 = O=C(Cc1ccc(CN[*:1])cc1)[*:2]; 3Pal = N[C@@H](Cc1cccnc1)C(=O)O; Cit = NC(=O)NCCC[C@H](N)C(=O)O; αMeL = CC(C)C[C@](C)(N)C(=O)O; NMeS = CN[C@@H](CO)C(=O)O; Orn = NCCC[C@H](N)C(=O)O; Q(Me) = not defined here; Dab = NCC[C@H](N)C(=O)O; βAla = NCCC(=O)O
T1: human IL-23R (Homo sapiens, UniProt Q5VWK5)
T1 sequence (Q5VWK5 22-629): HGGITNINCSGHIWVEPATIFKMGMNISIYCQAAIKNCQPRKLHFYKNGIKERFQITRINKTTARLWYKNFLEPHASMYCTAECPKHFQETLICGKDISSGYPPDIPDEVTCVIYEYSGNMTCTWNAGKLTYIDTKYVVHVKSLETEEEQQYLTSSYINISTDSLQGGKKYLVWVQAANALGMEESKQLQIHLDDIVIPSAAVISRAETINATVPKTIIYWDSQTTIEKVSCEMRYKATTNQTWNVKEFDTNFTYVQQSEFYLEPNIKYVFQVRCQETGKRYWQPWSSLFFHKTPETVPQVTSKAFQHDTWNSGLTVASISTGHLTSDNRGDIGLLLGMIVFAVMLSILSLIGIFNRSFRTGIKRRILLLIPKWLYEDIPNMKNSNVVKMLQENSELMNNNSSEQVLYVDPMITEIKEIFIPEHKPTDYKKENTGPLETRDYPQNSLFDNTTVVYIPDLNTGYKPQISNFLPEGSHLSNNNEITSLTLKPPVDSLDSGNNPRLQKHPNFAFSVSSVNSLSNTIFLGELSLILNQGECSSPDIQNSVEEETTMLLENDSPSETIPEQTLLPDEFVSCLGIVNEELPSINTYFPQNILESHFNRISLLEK

T2: Nluc-IL23R fusion protein (human, UniProt Q5VWK5 22-629)
T2 construct: range 22-629; expressed with a secretion signal in HEK293 cells; used as crude membrane preparation; also called hIL-23R; human IL-23R; not shown: Nanoluc protein from the expression plasmid N1371 (Promega), N-terminal of IL-23R
T2 sequence (looked up): T1 sequence (Q5VWK5 22-629)

B1: Compound 24 (peptide)
peptide: [4‑Aminomethyl‑phenylacetyl]SEWK(Ac)[Dab][AEF][2Nal][αMeL]E[Dab][3Pal]-NHMe
modifications: lactam N-10, 3-6
SMILES: CNC(=O)[C@H](Cc1cccnc1)NC(=O)[C@H](CCN)NC(=O)[C@@H]1CCC(=O)NCc2ccc(cc2)CC(=O)N[C@@H](CO)C(=O)N[C@H]2CCC(=O)NCC[C@H](NC(=O)[C@H](CCCCNC(C)=O)NC(=O)[C@H](Cc3c[nH]c4ccccc34)NC2=O)C(=O)N[C@@H](Cc2ccc(OCCN)cc2)C(=O)N[C@@H](Cc2ccc3ccccc3c2)C(=O)N[C@@](C)(CC(C)C)C(=O)N1
B2: Compound 28 (peptide)
peptide: [4‑Aminomethyl‑phenylacetyl]SEW[Orn][Dab][AEF][2Nal][αMeL]E[Dab][3Pal]-NHMe
modifications: lactam N-10, 3-6
SMILES: CNC(=O)[C@H](Cc1cccnc1)NC(=O)[C@H](CCN)NC(=O)[C@@H]1CCC(=O)NCc2ccc(cc2)CC(=O)N[C@@H](CO)C(=O)N[C@H]2CCC(=O)NCC[C@H](NC(=O)[C@H](CCCN)NC(=O)[C@H](Cc3c[nH]c4ccccc34)NC2=O)C(=O)N[C@@H](Cc2ccc(OCCN)cc2)C(=O)N[C@@H](Cc2ccc3ccccc3c2)C(=O)N[C@@](C)(CC(C)C)C(=O)N1
B3: Compound 33 (peptide)
peptide: [4‑Aminomethyl‑phenylacetyl]SEWQ[Dab][AEF][2Nal][αMeL]EQ[3Pal]-NHMe
modifications: lactam N-10, 3-6
SMILES: CNC(=O)[C@H](Cc1cccnc1)NC(=O)[C@H](CCC(N)=O)NC(=O)[C@@H]1CCC(=O)NCc2ccc(cc2)CC(=O)N[C@@H](CO)C(=O)N[C@H]2CCC(=O)NCC[C@H](NC(=O)[C@H](CCC(N)=O)NC(=O)[C@H](Cc3c[nH]c4ccccc34)NC2=O)C(=O)N[C@@H](Cc2ccc(OCCN)cc2)C(=O)N[C@@H](Cc2ccc3ccccc3c2)C(=O)N[C@@](C)(CC(C)C)C(=O)N1
B4: Compound 34 (peptide)
peptide: [4‑Aminomethyl‑phenylacetyl]SEWQ[Dab][AEF][2Nal][αMeL]EH[3Pal]-NHMe
modifications: lactam N-10, 3-6
SMILES: CNC(=O)[C@H](Cc1cccnc1)NC(=O)[C@H](Cc1c[nH]cn1)NC(=O)[C@@H]1CCC(=O)NCc2ccc(cc2)CC(=O)N[C@@H](CO)C(=O)N[C@H]2CCC(=O)NCC[C@H](NC(=O)[C@H](CCC(N)=O)NC(=O)[C@H](Cc3c[nH]c4ccccc34)NC2=O)C(=O)N[C@@H](Cc2ccc(OCCN)cc2)C(=O)N[C@@H](Cc2ccc3ccccc3c2)C(=O)N[C@@](C)(CC(C)C)C(=O)N1
B5: Compound 40 (peptide)
peptide: [4‑Aminomethyl‑phenylacetyl]AEWQ[Dab][AEF][2Nal][αMeL]ES[3Pal]-NHMe
modifications: lactam N-10, 3-6
SMILES: CNC(=O)[C@H](Cc1cccnc1)NC(=O)[C@H](CO)NC(=O)[C@@H]1CCC(=O)NCc2ccc(cc2)CC(=O)N[C@@H](C)C(=O)N[C@H]2CCC(=O)NCC[C@H](NC(=O)[C@H](CCC(N)=O)NC(=O)[C@H](Cc3c[nH]c4ccccc34)NC2=O)C(=O)N[C@@H](Cc2ccc(OCCN)cc2)C(=O)N[C@@H](Cc2ccc3ccccc3c2)C(=O)N[C@@](C)(CC(C)C)C(=O)N1
B6: Ref 141 (peptide)
peptide: [4‑Aminomethyl‑phenylacetyl][NMeS]CWQC[AEF][2Nal][αMeL]E[Dab]-NH2
modifications: lactam N-10; bridge 3-6; not fully specified (bridges); printed as [4-Aminomethyl-phenylacetyl](1c)*[N-Me-Ser]C(2a)WQC(2a)[Y(2-aminoethoxy)][2-Nal][2-Me-Leu]E(1c)[Dab]-[NH2]

Experiments:
[1] = molecular target: T1, human IL-23R; test: biochemical
Procedure, shortened: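 BRET displacement of a TAMRA-labelled reference compound from N-terminal Nanoluc-IL-23R fusion protein in membranes from stably transfected HEK293 cells. Incubation 2 h at room temperature, then Nanoluc substrate was added and the TAMRA/Nanoluc ratio read. IC50 and maximal displacement came from 4-parameter logistic fits.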

[2] = Peptide stability in simulated intestinal fluid (SIF); format: in vitro ADME; settings: pig, simulated intestinal fluid (SIF) with porcine pancreatin, 37 °C, pH 6.8, porcine pancreatin 10 g/L, 10 µM; for remaining at 4 h, 10 µM: read-out: SIF (% remaining 4 h)
Procedure: SGF was prepared by dissolving sodium chloride (0.2 g) in 50 mL of water. A volume of 0.7 mL of 10 M HCl was added to adjust the pH of the solution to 1.2 and the volume made up to 100 mL with water. […] SIF was prepared by dissolving monobasic potassium phosphate (0.68 g) in 50 mL of water and adjusting the pH to 6.8 with 1 M NaOH. The volume was subsequently made up to 100 mL with water. 200 mg porcine pancreatin (P1625, Sigma Aldrich) was gently dissolved into 20 mL preheated (37 °C) solution (10 g/L) immediately prior to the incubation.
The incubation was performed at 37 °C with gentle shaking. […] After the last timepoint, the sampling plate was mixed for 10 min on a shaking table and centrifuged 10 min at 2200 g. 70 µL resulting supernatant was diluted with 150 µL water, mixed and centrifugated before analysis by liquid chromatography high resolution mass spectrometry. […] Percent remaining at each timepoint was calculated relative to timepoint zero based on absolute peak areas.
Compounds with a SIF stability (after 4 h) above 70% are considered highly SIF stable.

[3] = molecular target: T2, Nluc-IL23R fusion protein; test: BRET competition vs TAMRA-labelled peptide, Nluc-IL23R membranes

Row | Molecule | % displacement (hIL-23R binding) [3] [%] | other results
1 | CNC(=O)[C@H](Cc1cccnc1)NC(=O)[C@H](CO)NC(=O)[C@@H]1CCC(=O)NCc2ccc(cc2)CC(=O)N[C@@H](CO)C(=O)N[C@H]2CCC(=O)NCC[C@H](NC(=O)[C@H](CCC(N)=O)NC(=O)[C@H](Cc3c[nH]c4ccccc34)NC2=O)C(=O)N[C@@H](Cc2ccc(OCCN)cc2)C(=O)N[C@@H](Cc2ccc3ccccc3c2)C(=O)N[C@@](C)(CC(C)C)C(=O)N1 [Compound 31, [4-Aminomethyl-phenylacetyl](1c)*SE(2c)WQ[Dab](2c)[Y(2-aminoethoxy)][2-Nal][2-Me-Leu]E(1c)S[3-(3-Pyridyl)-Ala]-[NHMe]] ([X1]SEWQ[Dab][AEF][2Nal][αMeL]ES[3Pal]-NHMe; lactam 3-6, N-10) |  | % displacement (hIL-23R binding) [1]: 97%; IC50 [1]: 0.012 nM; remaining at 4 h, 10 µM [2]: 41%
2 | CNC(=O)[C@H](Cc1cccnc1)NC(=O)[C@H](CCN)NC(=O)[C@@H]1CCC(=O)NCc2ccc(cc2)CC(=O)N[C@@H](C)C(=O)N[C@H]2CCC(=O)NCC[C@H](NC(=O)[C@H](CCC(N)=O)NC(=O)[C@H](Cc3c[nH]c4ccccc34)NC2=O)C(=O)N[C@@H](CCc2ccccc2)C(=O)N[C@@H](Cc2ccc3ccccc3c2)C(=O)NC(C)(C)C(=O)N1 [Compound 41, [4-Aminomethyl-phenylacetyl](1c)*AE(2c)WQ[Dab](2c)[hPhe][2-Nal][Aib]E(1c)[Dab][3-(3-Pyridyl)-Ala]-[NHMe]] |  | % displacement (hIL-23R binding) [1]: 104%; IC50 [1]: 0.28 nM; remaining at 1 h, 10 µM ([2]; 1 h): 100%; remaining at 4 h, 10 µM [2]: 95%
3 | B1 | 97 | 
4 | [4‑Aminomethyl‑phenylacetyl]SEW[Dab](Ac)[Dab][AEF][2Nal][αMeL]E[Dab][3Pal]-NHMe (lactam (positions not given here); lactam 3-6; not fully specified (bridges)) [Compound 25] | 93 | IC50 [3]: 0.011 nM
5 | [4‑Aminomethyl‑phenylacetyl]SEW[Cit][Dab][AEF][2Nal][αMeL]E[Dab][3Pal]-NHMe (lactam (positions not given here); lactam 3-6; not fully specified (bridges)) [Compound 26] | 95 | 
6 | [4‑Aminomethyl‑phenylacetyl]SEW[Q(pyrrolidin)(3)][Dab][AEF][2Nal][αMeL]E[Dab][3Pal]-NHMe (lactam N-10, 3-6) [Compound 27] | 97 | IC50 [3]: 0.017 nM
7 | B2 | 97 | IC50 [3]: 0.011 nM
8 | [4‑Aminomethyl‑phenylacetyl]SEW[Q(Me)][Dab][AEF][2Nal][αMeL]E[Dab][3Pal]-NHMe (lactam N-10, 3-6; reading uncertain) [Compound 29] | 96 | IC50 [3]: 0.011 nM
9 | [4‑Aminomethyl‑phenylacetyl]SEW[Q(2Me)][Dab][AEF][2Nal][αMeL]E[Dab][3Pal]-NHMe (lactam N-10, 3-6) [Compound 30] | 104 | 
10 | [4‑Aminomethyl‑phenylacetyl]SEWQ[Dab][AEF][2Nal][αMeL]ES[3Pal]-NHMe (lactam N-10, 3-6) [Compound 31] | 97 | 
11 | B3 | 92 | 
12 | B4 | 90 | 
13 | B5 | 100 | 
14 | B6 | 102 | 
15 | [βAla][3Pal]SCWQC[AEF][2Nal][αMeL]E[dR]-NH2 (lactam N-11; linker 4-7 via 1,3‑dithio‑propan‑2‑one) [Compound 1] | 105 | 
16 | [3Pal][βAla]SCWQC[AEF][2Nal][αMeL]E[dR]-NH2 (lactam N-11; linker 4-7 via 1,3‑dithio‑propan‑2‑one) [Compound 2] | 103 | 

Reference: EP4471049A1 (Zealand Pharma A/S, priority 2023, dated 2024)
